Experimental data as given in publication PMC8754649, “Structural basis of dimerization and nucleic acid binding of human DBHS proteins NONO and PSPC1” (Nucleic Acids Research, 2021).

B1: PSPC1-DBHS (paraspeckle protein component 1, aa61–320) (domain or fragment, human, UniProt Q8WXF1 61-320, looked up)
chain: MGFTIDIKSFLKPGEKTYTQRCRLFVGNLPTDITEEDFKRLFERYGEPSEVFINRDRGFGFIRLESRTLAEIAKAELDGTILKSRPLRIRFATHGAALTVKNLSPVVSNELLEQAFSQFGPVEKAVVVVDDRGRATGKGFVEFAAKPPARKALERCGDGAFLLTTTPRPVIVEPMEQFDDEDGLPEKLMQKTQQYHKEREQPPRFAQPGTFEFEYASRWKALDEMEKQQREQVDRNIREAKEKLEAEMEAARHEHQLMLM
notes: human PSPC1, conserved DBHS region, aa61–320 relative to UniProt entry PSPC1_HUMAN; also called PSPC1 homodimer; PSPC1 (aa61–320); source: E. coli Rosetta2 (DE3), purified (Ni Hi-Trap, TEV digestion, reverse Hi-Trap, Superdex 200)
B2: NONO-DBHS (non-POU domain-containing octamer-binding protein, aa53–312) (domain or fragment, human, UniProt Q15233 53-312, looked up)
chain: EGLTIDLKNFRKPGEKTFTQRSRLFVGNLPPDITEEEMRKLFEKYGKAGEVFIHKDKGFGFIRLETRTLAEIAKVELDNMPLRGKQLRVRFACHSASLTVRNLPQYVSNELLEEAFSVFGQVERAVVIVDDRGRPSGKGIVEFSGKPAARKALDRCSEGSFLLTTFPRPVTVEPMDQLDDEEGLPEKLVIKNQQFHKEREQPPRFAQPGSFEYEYAMRWKALIEMEKQQQDQVDRNIKEAREKLEMEMEAARHEHQVMLM
notes: Cloned into the first expression cassette of pET-Duet1; also called NONO homodimer; P54nrb; not shown: His6, N-terminal, cleaved

What was measured:
[1] = target: the molecule itself; assay: crystal structure; PSPC1 aa61–320 homodimer; one dimer in the asymmetric unit; 3.17 Å; hanging drop, 100 mM malic acid pH 7.0, 28% PEG 3350, 100 mM Tris pH 7.0
[2] = target: the molecule itself; assay: crystal structure; NONO aa53–312 homodimer; six dimers (12 monomers) in the asymmetric unit; 2.60 Å; crystallization and phasing described in ref. 38

| Protein | binding result [1] | binding result [2] |
| --- | --- | --- |
| B1 | binds | – |
| B2 | – | binds |
